Test results as given in ChEMBL document CHEMBL1128918, “Deuterium isotope effects on porphobilinogen synthesis catalysed by 5-aminolaevulinic acid dehydratase” (Bioorg Med Chem Lett, 1996).

Substrate: NCC(=O)CCC(=O)O
Assay: The Michaelis-Menten rate of reaction catalyzed by ALA dehydratase from Bacillus subtilis measured spectrophotometrically

B1: Delta-aminolevulinic acid dehydratase (Homo sapiens), P13716 (protein)
chain: MQPQSVLHSGYFHPLLRAWQTATTTLNASNLIYPIFVTDVPDDIQPITSLPGVARYGVKRLEEMLRPLVEEGLRCVLIFGVPSRVPKDERGSAADSEESPAIEAIHLLRKTFPNLLVACDVCLCPYTSHGHCGLLSENGAFRAEESRQRLAEVALAYAKAGCQVVAPSDMMDGRVEAIKEALMAHGLGNRVSVMSYSAKFASCFYGPFRDAAKSSPAFGDRRCYQLPPGARGLALRAVDRDVREGADMLMVKPGMPYLDIVREVKDKHPDLPLAVYHVSGEFAMLWHGAQAGAFDLKAAVLEAMTAFRRAGADIIITYYTPQLLQWLKEE
In the case of B1, the Km is reported as 241 µM [middle of 4 runs].
